The record followed here is patent US20040229213A1 (INSTITUT PASTEUR, published 2004).

The series concerns the molecule itself. Nature of the series: yeast two-hybrid two-by-two matrix, LacZ and HIS3 reporters.

B1: HCV core protein, full length (strain H) (other)
chain: MSTNPKPQRKTKRNTNRRPQDVKFPGGGQIVGGVYLLPRRGPRLGVRATRKTSERSQPRGRRQPIPKARRPEGRTWAQPGYPWPLYGNEGCGWAGWLLSPRGSRPSWGPTDPRRRSRNLGKVIDTLTCGFADLMGYIPLVGAPLGGAARALAHGVRVLEDGVNYATGNLPGCSFSIFLLALLSCLTVPASA
notes: mature; also called capsid protein; full-length capsid
B1: the binding result is “no binding”.
